Data on one molecule can be found in paper PMC4007151 (Nature communications, 2013).

No end group written: not given here.

This test has as its target T1, PHF1 Tudor-PHD1 (human, UniProt O43189 14-140).
T1 sequence: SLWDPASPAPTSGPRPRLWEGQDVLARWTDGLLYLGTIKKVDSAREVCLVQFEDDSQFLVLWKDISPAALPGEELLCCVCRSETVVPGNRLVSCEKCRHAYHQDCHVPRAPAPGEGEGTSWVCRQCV
As to the kind of experiment: NMR titration.

For ATGGVK(Me3)KPHR [H3K36me3 peptide], the binding result was “binds”.
